This note sets out measurements from patent US20200209240A1.

In assay [1] the target is human CD19 (human) (UniProt P15391). In words: dSTORM, antibody titration on NALM-6 cells, antibody at 5 µg/ml.
Assay [2] has the same target. The assay can be described thus: dSTORM, antibody titration on NALM-6 cells, antibody at 2.5 µg/ml.
Assay [3] shares this target. In words: dSTORM on NALM-6 cells, antibody at c≥2.5 µg/ml.
Assay [4] has the same target. The assay can be described thus: dSTORM, antibody titration on NALM-6 cells, antibody at 5 × 10^-5 µg/ml.
The target is the same in assay [5]. In words: dSTORM, antibody titration on NALM-6 cells, antibody at 5 × 10^-3 µg/ml.
The target is the same in assay [6]. The assay can be described thus: dSTORM, antibody titration on NALM-6 cells, antibody at 0.05 µg/ml.
The target is the same in assay [7]. The assay can be described thus: dSTORM, antibody titration on NALM-6 cells, antibody at 5 × 10^-4 µg/ml.
Assay [8] has the same target. The assay can be described thus: dSTORM, antibody titration on NALM-6 cells, antibody at 10 µg/ml.
Assay [9] shares this target. The assay can be described thus: dSTORM on NALM-6 cells, antibody at 5×10^-5 µg/ml.
For assay [10] the target is unchanged. The assay can be described thus: dSTORM, antibody titration on NALM-6 cells, antibody at 0.5 µg/ml.
For assay [11] the target is unchanged. The assay can be described thus: dSTORM, isotype control on NALM-6 cells (background), antibody at 5 × 10^-3 µg/ml.
The target is the same in assay [12]. The assay can be described thus: dSTORM, isotype control on NALM-6 cells (background), antibody at 0.05 µg/ml.
For assay [13] the target is unchanged. The assay can be described thus: dSTORM, isotype control on NALM-6 cells (background), antibody at 5 × 10^-4 µg/ml.
Assay [14] has the same target. The assay can be described thus: dSTORM, isotype control on NALM-6 cells (background), antibody at 0.5 µg/ml.
Assay [15] shares this target. The assay can be described thus: dSTORM, isotype control on NALM-6 cells (background), antibody at 10 µg/ml.
Assay [16] has the same target. In words: dSTORM, isotype control on NALM-6 cells (background), antibody at 2.5 µg/ml.
Assay [17] shares this target. The assay can be described thus: dSTORM, isotype control on NALM-6 cells (background), antibody at 5 × 10^-5 µg/ml.
Assay [18] has the same target. In words: dSTORM, isotype control on NALM-6 cells (background), antibody at 5 µg/ml.

Chain of UniProt P15391 (P15391 20-556): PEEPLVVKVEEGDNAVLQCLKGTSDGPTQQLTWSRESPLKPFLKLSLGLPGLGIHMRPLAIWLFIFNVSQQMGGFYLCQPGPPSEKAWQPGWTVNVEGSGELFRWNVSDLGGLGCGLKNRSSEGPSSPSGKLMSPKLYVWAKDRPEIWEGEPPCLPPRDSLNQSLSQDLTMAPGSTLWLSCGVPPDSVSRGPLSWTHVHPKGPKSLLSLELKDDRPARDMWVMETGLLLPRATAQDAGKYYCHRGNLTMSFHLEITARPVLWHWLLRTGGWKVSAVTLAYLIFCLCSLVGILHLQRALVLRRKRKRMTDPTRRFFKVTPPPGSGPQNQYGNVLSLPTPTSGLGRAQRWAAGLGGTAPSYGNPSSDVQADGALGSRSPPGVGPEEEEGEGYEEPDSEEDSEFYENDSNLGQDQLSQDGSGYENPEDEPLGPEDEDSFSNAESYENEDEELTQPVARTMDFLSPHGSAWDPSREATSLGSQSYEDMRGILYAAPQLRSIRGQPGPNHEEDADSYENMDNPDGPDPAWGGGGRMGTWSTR

Consider “anti-CD19 antibody, clone HIB19, Alexa Fluor 647 conjugate (BioLegend)”, for which the Molecules per cell (molecules per cell) was determined as 1860 in assay [1]; 1780 in [2]; 3.1 in assay [4]; 67 in assay [5]; 182 in assay [6]; 12 in [7]. The Molecules per cell (molecules per cell) in assay [8] is 1880; in assay [10], 710. The same substance had a CD19 molecules/µm^2 under saturating conditions (CD19 molecules/µm^2) in [3] of 3.4. The same substance displayed a CD19 molecules/µm^2 at the detection limit (CD19 molecules/µm^2) in [9] of 0.006.

Regarding “AF647 isotype control antibody (BioLegend)”, the Molecules per cell (molecules per cell) in assay [11] was determined as 1.3; in assay [12], 7.1; in assay [13] it was 0.8; in assay [14], 44; in assay [15] it was 72; in assay [16] it was 50. The Molecules per cell (molecules per cell) in [17] was 0; in assay [18], 85.
